PMC7864929, “Crystal structure of the human PRPK–TPRKB complex” (Communications Biology, 2021)
Numbering of substitutions follows the chain as printed. Names and notes keep the numbering of the source.

B1: GST-tagged PRPK S250A (enzyme, human, UniProt Q96S44 1-253, looked up)
chain: MAAARATTPADGEEPAPEAEALAAARERSSRFLSGLELVKQGAEARVFRGRFQGRAAVIKHRFPKGYRHPALEARLGRRRTVQEARALLRCRRAGISAPVVFFVDYASNCLYMEEIEGSVTVRDYIQSTMETEKTPQGLSNLAKTIGQVLARMHDEDLIHGDLTTSNMLLKPPLEQLNIVLIDFGLSFISALPEDKGVDLYVLEKAFLSTHPNTETVFEAFLKSYSTSSKKARPVLKKLDEVRLRGRKRAMVG
notes: human p53-related protein kinase (PRPK, TP53RK) with S250A; source: E. coli BL21 lysate, captured on glutathione Sepharose 4B resin
B2: GST-tagged PRPK S250E (enzyme, human, UniProt Q96S44 1-253, looked up)
chain: B1 chain with A250E
notes: human p53-related protein kinase (PRPK, TP53RK) with S250E; source: E. coli BL21 lysate, captured on glutathione Sepharose 4B resin
B3: GST-tagged PRPK R80A (enzyme, human, UniProt Q96S44 1-253, looked up)
chain: B1 chain with R80A, A250S
notes: human p53-related protein kinase (PRPK, TP53RK) with R80A; source: E. coli BL21 lysate, captured on glutathione Sepharose 4B resin
B4: GST-tagged PRPK K205A (enzyme, human, UniProt Q96S44 1-253, looked up)
chain: B1 chain with K205A, A250S
notes: human p53-related protein kinase (PRPK, TP53RK) with K205A; source: E. coli BL21 lysate, captured on glutathione Sepharose 4B resin
B5: GST-tagged PRPK (wild type) (enzyme, human, UniProt Q96S44 1-253, looked up)
chain: B1 chain with A250S
notes: human p53-related protein kinase (PRPK, TP53RK); Cloned into pGEX-6p-1; Parent of the GST-PRPK mutants; also called GST-PRPK; TP53RK; source: E. coli BL21 lysate, captured on glutathione Sepharose 4B resin
B6: GST-tagged PRPK K65A (enzyme, human, UniProt Q96S44 1-253, looked up)
chain: B1 chain with K65A, A250S
notes: human p53-related protein kinase (PRPK, TP53RK) with K65A; source: E. coli BL21 lysate, captured on glutathione Sepharose 4B resin

Target: T1, MBP-tagged OSGEP (human, UniProt Q9NPF4 1-335)
T1 construct: human OSGEP (gene bought from DNAsu); Cloned into a modified pMal-c2X vector; also called MBP-OSGEP; Kae1 (yeast ortholog); source: E. coli BL21-CodonPlus (DE3), purified (amylose resin, HiTrap Q anion exchange)
T1 sequence (looked up): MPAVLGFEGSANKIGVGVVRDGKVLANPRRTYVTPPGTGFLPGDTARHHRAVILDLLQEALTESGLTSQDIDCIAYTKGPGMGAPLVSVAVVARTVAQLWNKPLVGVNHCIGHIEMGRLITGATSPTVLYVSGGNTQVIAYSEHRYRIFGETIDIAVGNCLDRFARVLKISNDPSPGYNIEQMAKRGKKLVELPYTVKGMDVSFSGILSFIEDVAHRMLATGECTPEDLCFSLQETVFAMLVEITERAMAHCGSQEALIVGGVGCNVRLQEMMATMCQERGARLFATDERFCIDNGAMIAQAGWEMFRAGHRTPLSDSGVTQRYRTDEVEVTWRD
Assay: pull-down; GST-tagged PRPK proteins captured on 20 µl glutathione Sepharose 4B from BL21 lysates, then incubated with about 15 µg purified His-TPRKB or MBP-OSGEP; 20 mM Tris-HCl pH 8.0, 300 mM NaCl, 0.1% Nonidet P-40, 5% glycerol, 2 mM DTT, 0.4 mM PMSF; 2 h at 4°C; 4 washes; Western blot with anti-His or anti-MBP
Conditions: both partners purified

Binding result, binds:
B1
B2
B3
B4
B5
B6
